Test results from patent US12227570B2, “Anti-CEACAM6 antibodies and methods of use” (Singapore Health Services PTE LTD, priority 2016, dated 2025).

Columns and labels:
[1] = target: T1, CEACAM6 (Homo sapiens, UniProt P40199); test: Binding after siRNA knock down of CEACAM6; format: cell-based; conditions: PC-9 cells; Western blot and flow cytometry
T1 construct: 20 μg of PC-9 membrane protein extract was first denatured; endogenous in cells; host or cells: PC-9 cells
T1 sequence (P40199 35-320): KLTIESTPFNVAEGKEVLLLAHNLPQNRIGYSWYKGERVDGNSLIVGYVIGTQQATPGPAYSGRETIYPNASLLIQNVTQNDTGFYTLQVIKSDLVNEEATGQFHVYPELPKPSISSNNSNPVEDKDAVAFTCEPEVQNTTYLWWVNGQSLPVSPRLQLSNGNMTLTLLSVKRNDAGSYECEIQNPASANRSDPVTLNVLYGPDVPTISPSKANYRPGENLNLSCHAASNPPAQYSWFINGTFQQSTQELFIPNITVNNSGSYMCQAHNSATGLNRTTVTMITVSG

[2] = test system: PC-9 cells; test: Antibody internalisation by immunofluorescence; format: cell-based; conditions: 37° C.; a proportion of cells not internalised at 120 min
[3] = test system: normal tissues; test: IHC staining on FFPE normal tissue microarray (MNO961)
Protocol: TMA slides containing FFPE tissues were first heated in an oven at 60° C. for 30 min to remove any solvents. The slides were then dewaxed and re-hydrated through sequential immersion in Histoclear (2×), 100% ethanol (2×), 95% ethanol, 70% ethanol, and finally in DI water.
Heat-induced epitope retrieval was done in a solution containing 10 mM Tris Base, 1 mM EDTA, 0.05% Tween 20 at pH 9.0, and heated at 95° C. for 20 min. The container with the antigen retrieval solution and slides was then removed and allowed to cool to room temperature for an additional 20 min. The slides were then washed in DI water. Endogenous peroxidase activity was then blocked by incubation of the slides with 3% H2O2 in PBS for 30 min at room temperature. The slides were washed in DI water, followed by a blocking step with 10% normal goat serum in PBS for 30 min.
The slides were then incubated with GR6A04 at 5 μg/mL in blocking solution overnight at 4° C. The slides were then washed an incubated with a polymer-based anti-mouse secondary antibody conjugated with HRP (DAKO, USA) for 30 min at room temperature, and developed with the recommended DAB chromogen substrate solution for 2 min, and counterstained with Gill's Hematoxylin solution.
The stained slides were subsequently dehydrated through immersion in 50% ethanol, 70% ethanol, 90% ethanol, 100% ethanol (2×) and Histoclear (2×), before mounting with a glass cover slip. The slides were then imaged with the Zeiss AxioScan Digital Slide Scanner.

[4] = test system: A549−GR6A04+ cells; test: Subcutaneous xenograft model; format: in vivo, NCr Nude mice; conditions: 10 mg/kg, 3 doses on D0, D4 and D8, start at tumour size >150 mm3
Protocol: Xenograft models were established using A549−GR6A04+ cells in NCr Nude mice. 5E6 cells in DMEM basal media were mixed at a 1:1 ratio with Matrigel, and injected subcutaneously at a volume of 200 μl. Tumours were allowed to form and reach a size of >150 mm^3, before they were randomised into 5 groups of 5 mice each. The groups were treated with mAbs as follows: (1) Buffer control; (2) GR6A04-MMAE; (3) Hu-GR6A04; (4) GR6A04; (5) MG1.45-MMAE isotype control. mAbs were injected via tail vein injection at a total volume of 100 μl. Each dose, were applicable, is at 200 μg (equivalent to 10 mg/kg), and treatment was done every 4 days, for a total of 3 doses (Day 0, 4 and 8). Tumour size was monitored over 50 days.

[5] = test system: PC-9 Gefitinib resistant clones (CL75, CL86, CL131) and parental PC-9; test: Flow cytometry binding on PC-9 and gefitinib resistant PC-9 clones; format: cell-based
Protocol: (§1) Cells were harvested as single cell suspensions using trypsin. 1E5 cells were used per sample, and incubated with 100 μl of mAb culture supernatant for 30 min. Cells were then washed with 1% bovine serum albumin in PBS, and further incubated with 100 μl of goat anti-mouse antibody fluorescein isothiocyanate (FITC)-conjugated (1:500, DAKO, Denmark) for 15 min at 4° C. in the dark. Cells were again washed and resuspended in 200 μL of 1% BSA/PBS for analysis on Guava® easy Cyte 8HT Benchtop Flow Cytometer (Merck Millipore, USA). For interrogation of […] binding, cells were fixed with 4% PFA/PBS (Affymetrix, USA) at room temperature for 10 min, washed in PBS, and permeabilised with 0.1% triton/PBS for 5 min at room temperature, before proceeding with incubation with mAb supernatant/primary antibody. For staining with propidium iodide, PI was added to a final concentration of 5 μg/mL for 5 min just prior to analysis by the flow cytometer.

[6] = test system: PC-9 Gefitinib resistant clones; test: Propidium iodide staining (FL-3) for cytotoxicity of mAb alone; format: cell-based; conditions: cells incubated with the mAb alone
Protocol: as §1

[7] = test system: CL75 GR clone; test: Mab-ZAP indirect saporin conjugate cell growth inhibition; format: cell-based; conditions: GR6A04 indirectly conjugated with saporin via anti-mouse antibody
Protocol: (§2) Cells were seeded into a black coated 96 well plate (Grenier Bio-one, UK) at a range of density from 1000-5000 cells per well (depending on the cell type used) and 90 μL per well. The plate was then incubated for 24 hours at 37° C. in humidified air with 5% CO2. After 24 hours, 10 μL of mAb or buffer was added to each well and the plate was again placed at 37° C. in humidified air with 5% CO2. 4 days after addition of mAb or buffer, 100 μL of CTG substrate (Promega, Wisconsin, USA) was added to each well. The plate was then left in the dark for 10 minutes, with vigorous shaking. The cell viability of the samples was then quantified using Tecan I-control (Tecan, Switzerland).

[8] = test system: PC-9; test: as above; format: cell-based; conditions: GR6A04 indirectly conjugated with saporin via anti-mouse antibody; PC-9 sensitive parental line
Protocol: as §2

[9] = test system: A549; test: Flow cytometry binding on A549 lung adenocarcinoma; format: cell-based; conditions: A549 parental, heterogeneous binding
Protocol: as §1

[10] = test system: normal cell lines (fibroblasts, endothelial and epithelial cells) and primary PBMCs; test: Flow cytometry binding on normal cells; format: cell-based
Protocol: as §1

B1: GR6A04: mouse IgG1, κ anti-CEACAM6 monoclonal antibody, VH SEQ ID NO:1, VL SEQ ID NO:2, binds N-glycosylated CEACAM6 (antibody, V domains shown)
VH: SGPELVKPGASVKMSCKASGNTFTSYVMHWVKQKPGQGLEWIGYINPYNDGTKYNEKFKGKATLTSDKSSSTAYMELSSLTSEDSAVYYCARSTARATPYFYAMDYWGQGTSVTVSS
VL: DILMTQSPSSLAVTAGEKVTMRCKSSQSLLWSVNQNSYLSWYQLKQGQPPKLLLYGASIRESWVPDRFTGSGSGTDFTLTISNVHVEDLAVYYCQHNHGSFLPYTFGGGTKLEIK
modifications: Isolated antibody fragment
B1 was tested, and the “binding after knockdown of CEACAM6 expression” value [1] was “decrease”, the time to internalise [2] was at most 120 min and the “colon cores weakly positive (2+)” value ([3]; MNO961) was 2 of 3. The “normal tissue cores stained positive” value ([3]; MNO961) was 3, the “prostate cores weakly positive (2+)” value ([3]; MNO961) was 1 of 3 and the “normal tissue cores with no staining” value ([3]; MNO961, 35 anatomical sites) was 93 of the 96. For the same molecule, the “tumour growth versus buffer control” value [4] was “slower growth compared to the buffer control”, the “tumour growth versus buffer control” value ([4]; listed as Gr6A04) was “repression of tumour growth” and the binding ([5]; Gefitinib sensitive parental PC-9 and another GR PC-9 clone not used in immunisation) was “similarly high binding”. For the same molecule, the “percentage positive-binding (reactivity)” value ([5]; three PC-9 Gefitinib resistant clones used for immunisation, FL-1 gated at 2% on secondary-only control) was over 50%, the “cell cytotoxicity (propidium iodide staining, FL-3)” value [6] was “no apparent cell cytotoxicity” and the “cell cytotoxicity (propidium iodide staining, FL-3)” value ([6]; listed as GR 6A04) was “no inherent cytotoxity”. For the same molecule, the cell growth inhibited [7] was 28%, the cell growth inhibited [8] was 43% and the “GR6A04+ population (positive binding tail)” value [9] was 15-30%. For the same molecule, the “binding on the cell surface of normal cells” value [10] was under 8%.
